Patent publication US20140112930A1 (published 2014)

Assays:
[1] = biological target: T1, wild-type human Ang-2 (hAng-2-WT) (human, UniProt O15123 19-496); assay: SPR, captured Ab
T1 construct: called full-length wild-type; also called Full-length wild-type human Ang-2
T1 sequence: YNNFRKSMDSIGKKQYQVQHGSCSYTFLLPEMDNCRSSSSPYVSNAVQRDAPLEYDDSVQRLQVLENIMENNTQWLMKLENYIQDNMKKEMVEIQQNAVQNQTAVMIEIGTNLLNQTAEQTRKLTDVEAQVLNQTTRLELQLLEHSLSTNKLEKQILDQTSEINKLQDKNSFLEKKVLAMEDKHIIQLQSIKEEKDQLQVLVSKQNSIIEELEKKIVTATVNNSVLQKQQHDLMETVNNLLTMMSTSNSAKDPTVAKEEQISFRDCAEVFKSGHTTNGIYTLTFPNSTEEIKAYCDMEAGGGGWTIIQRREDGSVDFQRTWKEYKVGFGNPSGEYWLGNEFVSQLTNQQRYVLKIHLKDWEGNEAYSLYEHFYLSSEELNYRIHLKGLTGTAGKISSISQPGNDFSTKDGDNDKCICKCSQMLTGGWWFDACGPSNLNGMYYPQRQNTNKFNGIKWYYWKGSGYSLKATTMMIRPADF

Monomeric hAng-2FD = biological target: T2, Monomeric hAng-2FD (human, UniProt O15123 282-496); assay: SPR, captured Ab
T2 construct: also called fibrinogen-like domain of human Ang2; Human Ang-2FD
T2 sequence: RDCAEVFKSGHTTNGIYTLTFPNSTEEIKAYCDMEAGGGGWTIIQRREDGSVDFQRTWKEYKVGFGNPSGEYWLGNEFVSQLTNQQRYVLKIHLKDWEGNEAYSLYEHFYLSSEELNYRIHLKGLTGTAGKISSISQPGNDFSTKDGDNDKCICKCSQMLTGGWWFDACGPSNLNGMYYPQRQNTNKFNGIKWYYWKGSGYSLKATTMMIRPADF

[2] = biological target: T3, human bow-Ang-2 tetrameric construct (hBA2) (human); assay: SPR, captured Ab
T3 construct: also called human BA2; hBA2-hIgG1

[3] = biological target: T4, Dimeric Monkey Ang-2FD conjugated to human IgG1 (monkey (Macca fascicularis); human); assay: SPR, captured Ab, RT
T4 construct: also called Monkey Ang-2FD-hFc
Procedure: (§1) Antibody was captured on a goat anti-mouse IgG polyclonal antibody surface, a goat anti-human κ polyclonal antibody (Southern Biotech, Birmingham, Ala.) surface or a goat anti-human IgG polyclonal antibody (Jackson Immuno Research Lab, West Grove, Pa.) surface created through direct amine coupling to a BIACORE™ CM5 sensor chip to form a captured antibody surface. […] Antigen-antibody binding and dissociation were monitored in real time at room temperature. Kinetic analysis was performed to calculate KD and half-life of antigen/antibody complex dissociation.

[4] = biological target: T5, Dimeric Human Ang-2FD conjugated to human IgG1 (human); assay: SPR, captured Ab, RT
T5 construct: also called Human Ang-2FD-hFc; hAng-2FD-hFc
Procedure: as §1

[5] = biological target: T6, Dimeric Mouse Ang-2FD conjugated to human IgG1 (mouse (Mus musculus); human); assay: SPR, captured Ab, RT
T6 construct: also called Mouse Ang-2FD-hFc
Procedure: as §1

[6] = biological target: T4, Dimeric Monkey Ang-2FD conjugated to …; assay: competition ELISA, 16.67 nM Ab, coated hTie-2-mFc
Procedure: (§2) The plate was then blocked with PBS (Irvine Scientific, Santa Ana, Calif.) containing 0.5% BSA (Sigma-Aldrich Corp., St. Louis, Mo.) for one hour at room temperature. […] Human, mouse or monkey Ang-2FD protein conjugated to human IgG (Ang-2FD-hFc) were added to final concentrations of 2 nM, 8 nM, or 2 nM respectively and incubated for one hour at room temperature. The antibody/Ang-2FD-Fc mixture was then added to the plate containing hTie-2-mFc and incubated for one hour at room temperature. Detection of Ang-2FD-hFc bound to hTie-2-mFc protein was determined with Horse-Radish Peroxidase (HRP) conjugated to a-human IgG antibody (Jackson Immuno Research Lab, West Grove, Pa.) and developed by standard colorimetric response using tetramethylbenzidine (TMB) substrate (BD Biosciences, San Jose, Calif.). Absorbance was read at OD₄₅₀ for 0.1 sec.

[7] = biological target: T5, Dimeric Human Ang-2FD conjugated to …; assay: competition ELISA, 16.67 nM Ab, coated hTie-2-mFc
Procedure: as §2

[8] = biological target: T6, Dimeric Mouse Ang-2FD conjugated to …; assay: competition ELISA, 16.67 nM Ab, coated hTie-2-mFc
Procedure: as §2

Mouse Ang-2FD-hFc = biological target: T7, Mouse Ang-2FD-hFc (mouse (Mus musculus)); assay: blocking ELISA, 16.67 nM antibody, Ang-2FD-hFc to coated hTie-2-mFc
T7 construct: also called dimeric mouse Ang-2FD
Procedure: as §2

B1: H1H750N (antibody, V domains shown)
VH: QVKLVESGGGVVQPGRSLRVSCAASGFTFSSYGMHWVRQAPGKGLEWLAIIWYDGDNKYYSDSVKGRFTISRDNSKNTLYLQMNSLRAEDTAEYYCVRDASIASRFLDYWGQGTLVTVSS
VL: DIQMTQSPSSLSASIGDRVTITCRATQDINNYLAWFQQKPGKAPKSLIYATSNLQSGVPSKFSGSGSGTDYTLTISSLQPEDFSTYYCQQYHSYPLTFGGGTKVEIK
With B1 the Kd [1] was 0.0095 nM, the T1/2 [1] was 4440 min and the Kd (Monomeric hAng-2FD) was 0.787 nM. For the same binder, the T1/2 (Monomeric hAng-2FD) was 30.2 min, the Kd [2] was 0.0369 nM and the T1/2 [2] was 284 min. For the same binder, the Kd [3] was 0.199 nM, the T1/2 [3] was 244 min and the Kd [4] was 0.164 nM. It also gave a T1/2 [4] of 127 min, a Kd [5] of 0.218 nM and a T1/2 [5] of 121 min.

B2: H2M750N (antibody, V domains shown)
VH: QVKLVESGGGVVQPGRSLRVSCAASGFTFSSYGMHWVRQAPGKGLEWLAIIWYDGDNKYYSDSVKGRFTISRDNSKNTLYLQMNSLRAEDTAEYYCVRDASIASRFLDYWGQGTLVTVSS
VL: DIQMTQSPSSLSASIGDRVTITCRATQDINNYLAWFQQKPGKAPKSLIYATSNLQSGVPSKFSGSGSGTDYTLTISSLQPEDFSTYYCQQYHSYPLTFGGGTKVEIK
B2 was tested, and the Kd [1] was 0.0408 nM, the T1/2 [1] was 991 min and the Kd (Monomeric hAng-2FD) was 4.42 nM. For the same binder, the T1/2 (Monomeric hAng-2FD) was 21.5 min, the “Percent Blocking of Ang-2FD Binding to Tie-2” value (from here on “Percent Blocking”) [6] was 97.4% and the “Percent Blocking” value [7] was 99.4%. The “Percent Blocking” value [8] was 53.7%, the Kd [3] was 1.47 nM and the T1/2 [3] was 23 min. The Kd [4] was 0.362 nM and the T1/2 [4] was 32.2 min.

B3: H1H696P (antibody, V domains shown)
VH: QVQLVESGGGLVKPGGSLRLSCAASGFTFSDYYMSWIRQAPGKGLEWVSYISYTGRTIYYADSVKGRFTISRDNAKNSLYLQMNSLRAEDTAVYYCARDTDYGDFFDYWGQGTLVTVSS
VL: DIQMTQSPSSLSASVGDRVTITCRASQGISNYLAWFQQKPGKAPKSLIYAASSLQSGVPSKFSGSGSGTDFTLTISSLQPEDFATYYCQQYNSYPLTFGGGTKVEIK
B3 gave a Kd [1] of 0.0403 nM, a T1/2 [1] of 643 min and a Kd (Monomeric hAng-2FD) of 38.4 nM. For the same binder, the T1/2 (Monomeric hAng-2FD) was 0.2 min, the Kd [2] was 0.111 nM and the T1/2 [2] was 51.5 min. It also gave a Kd [3] of 0.354 nM, a T1/2 [3] of 36.6 min and a Kd [4] of 0.289 nM. The T1/2 [4] was 38.8 min, the Kd [5] was 0.402 nM and the T1/2 [5] was 37.6 min.

B4: H2M730N (antibody, V domains shown)
VH: EVQLVESGGGLVQPGGSLRLSCAASGFAFRSYWMTWVRQAPGKGLEWVANIQQDGNDKYYVDSVKGRFTISRDNAKNSLYLQMNSLRAEDTAVYYCARDTGIAEAGPFDYWGQGTLVTVSS
VL: DIQMTQSPSTLSASVGDRVSITCRASQTIISWLAWYQQKPGKAPRLLIYKASSLESGVPSRFSGSGSGTEFTLTINSLQPDDFATYYCQQYNRYWTFGQGTKVEIK
B4 was tested, and the Kd [1] was 0.0492 nM, the T1/2 [1] was 519 min and the Kd (Monomeric hAng-2FD) was 2.06 nM. The T1/2 (Monomeric hAng-2FD) was 24.4 min, the “Percent Blocking” value [6] was 97.3% and the “Percent Blocking” value [7] was 98.9%. For the same binder, the “Percent Blocking” value [8] was 55%, the Kd [3] was 0.842 nM and the T1/2 [3] was 36.6 min. The Kd [4] was 0.21 nM and the T1/2 [4] was 47 min.

B5: H1H685P (antibody, human IgG1, V domains shown)
VH: EVQLVESGGGLVQPGGSLRLSCAASGFTFSSYDIHWVRQATGKGLEWVSAIGPAGDTYYPGSVKGRFTISRENAKNSLYLQMNSLRAGDTAVYYCARGLITFGGLIAPFDYWGQGTLVTVSS
VL: EIVLTQSPGTLSLSPGERATLSCRASQSVSSTYLAWYQQKPGQAPRLLIYGASSRATGIPDRFSGSGSGTDFTLTISRLEPEDFAVYYCQHYDNSQTFGQGTKVEIK
notes: Fully human antibody, human IgG1
With B5 the “Percent Blocking” value (Mouse Ang-2FD-hFc) was 97.1%.

B6: H1M724N (antibody, V domains shown)
VH: QVQLVESGGGVVQPGRSLRLSCAASGFTLSNYGMHWVRQAPGKGLEWVAVIWHDGSNTYYADSVKGRFTISRDNSKNTLYLQMNSLRAEDTAVYYCTREGLDFWSGYYPNWFDPWGQGTLVTVSS
VL: DIQMTQSPSSLSASVGDRVTITCRASQGIRNDLGWYQQKPGKAPKRLIYAASNLQGGVPSRFSGSGSGTEFTLTISSLQPEDFAAYYCLQHNIYPLTFGGGTKVEIK
B6 showed a Kd [1] of 0.0331 nM, a T1/2 [1] of 568 min and a Kd (Monomeric hAng-2FD) of 1.75 nM. The T1/2 (Monomeric hAng-2FD) was 17.4 min, the “Percent Blocking” value [6] was 95.2% and the “Percent Blocking” value [7] was 99.5%. The “Percent Blocking” value [8] was 96.6%, the Kd [3] was 0.73 nM and the T1/2 [3] was 25.7 min. It also gave a Kd [4] of 0.179 nM, a T1/2 [4] of 42.7 min and a Kd [5] of 0.694 nM. It also gave a T1/2 [5] of 16 min.

B7: H1H695P (antibody, V domains shown)
VH: QVQLVESGGGVVQPGRSLRLSCAASGFTFSSYGMHWVRQAPGKGLEWVAVMWYDETNKYYADSVKGRFTISRDNSKNTLYLQMNSLRAEDTAVYYCARYSGYEDYYHGMDVWGQGTTVTVS
VL: EIVMTQSPATPSVSPGERATLSCRASQSISSNLAWYQQKPGQAPRLLIYGASTRATGIPARFSGSGSGTEFTLTISSLQSEDFAVYYCQHYNNWITFGQGTRLEIK
For B7, the Kd [1] was 0.0311 nM, the T1/2 [1] was 1770 min and the Kd (Monomeric hAng-2FD) was 1.12 nM. It also gave a Kd [2] of 0.0401 nM, a T1/2 [2] of 254 min and a Kd [3] of 0.44 nM. The T1/2 [3] was 84.1 min, the Kd [4] was 0.245 nM and the T1/2 [4] was 147 min. The Kd [5] was 0.347 nM and the T1/2 [5] was 124 min.

B8: H1H690P (antibody, V domains shown)
VH: EVQLVESGGGLVQPGESLRLSCAASGFTFSSYAMSWVRQGPGKGLEWVSSITGSGDTTYYADSVKGRFTISRDNSKNTLYLHMNSLRAEDTAVYYCAKDFLDYSTYLAFDLWGQGTMVTVSS
VL: EIVLTQSPATLSLSPGERATLSCRASQSVSSYLTWYQQKPGQAPRLLSYDASNRATGIPARFSGSGSGTDFTLTISSLEPEDFAVYYCQQRSNWPLTFGGGTKVEIK
B8 gave a Kd [1] of 0.0124 nM, a T1/2 [1] of 1570 min and a Kd (Monomeric hAng-2FD) of 0.594 nM. For the same binder, the T1/2 (Monomeric hAng-2FD) was 25.2 min, the Kd [2] was 0.0179 nM and the T1/2 [2] was 299 min. It also gave a Kd [3] of 0.0556 nM, a T1/2 [3] of 195 min and a Kd [4] of 0.079 nM. For the same binder, the T1/2 [4] was 126 min, the Kd [5] was 0.0913 nM and the T1/2 [5] was 105 min.

B9: H1H693P (antibody, V domains shown)
VH: EVQLVESGGGLVQPGESLRLSCAASGFTFSSYAMSWVRQGPGKGLEWVSSISGSGGTTYYADSVEGRFTISRDNSKNTLYLHMNSLRAEDTAVYYCAKDFLDYSTYLAFDLWGQGTMVTVSS
VL: DIQMTQSPSSVSASVGDRVTITCRASQGISSWLAWYQQKPGKAPKLLIYAASSLQSGVPSRFSGSGSGTDFTLTISSLQPEDFATYYCQQANSFPRTFGQGTKVEIK
Work on B9 yielded a Kd [1] of 0.425 nM, a T1/2 [1] of 100 min and a Kd (Monomeric hAng-2FD) of 44.8 nM. It also gave a T1/2 (Monomeric hAng-2FD) of 0.61 min, a Kd [2] of 0.299 nM and a T1/2 [2] of 28.7 min. For the same binder, the Kd [3] was 1.17 nM, the T1/2 [3] was 17.6 min and the Kd [4] was 0.5 nM. The T1/2 [4] was 37.1 min, the Kd [5] was 0.446 nM and the T1/2 [5] was 63.7 min.
